The values below come from PMC10070186 (2023).

One assay addresses T1, CgnB (Chondromyces crocatus CM c5).
T1 chain: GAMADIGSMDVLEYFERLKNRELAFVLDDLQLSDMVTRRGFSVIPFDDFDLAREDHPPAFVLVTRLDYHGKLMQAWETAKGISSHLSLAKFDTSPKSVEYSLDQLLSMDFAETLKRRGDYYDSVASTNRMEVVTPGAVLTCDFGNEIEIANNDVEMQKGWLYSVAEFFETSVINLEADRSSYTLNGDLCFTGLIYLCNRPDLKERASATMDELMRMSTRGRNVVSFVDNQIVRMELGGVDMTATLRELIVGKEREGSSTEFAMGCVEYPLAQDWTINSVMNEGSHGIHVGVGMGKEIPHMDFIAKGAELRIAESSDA
The assay can be described thus: MST.

Assay [1] addresses T2, CgnE (Chondromyces crocatus CM c5).
T2 chain: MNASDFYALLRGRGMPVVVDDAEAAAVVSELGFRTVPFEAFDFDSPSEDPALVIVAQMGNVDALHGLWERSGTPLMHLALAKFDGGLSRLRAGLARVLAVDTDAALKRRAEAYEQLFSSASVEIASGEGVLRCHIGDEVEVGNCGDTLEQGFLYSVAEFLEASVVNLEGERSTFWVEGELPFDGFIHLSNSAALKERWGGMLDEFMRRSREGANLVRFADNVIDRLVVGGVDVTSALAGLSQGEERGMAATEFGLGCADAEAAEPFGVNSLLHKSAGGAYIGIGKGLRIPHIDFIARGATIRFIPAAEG
As to the kind of experiment: MST.

For assay [2], the target named is T2, CgnE. As to the kind of experiment: CgnE titrated.
Assay [3] has as its target T2, CgnE. The assay can be described thus: MST; CgnA at constant high concentration.
In assay [4] the target is T3, CgnB in the presence of CgnA (400 µM) (Chondromyces crocatus CM c5).
T3 chain: T1 chain
As to the kind of experiment: CgnA present with CgnC, CgnB titrated.

Assay [5] deals with T4, CgnE in the presence of CgnA (400 µM) (Chondromyces crocatus CM c5).
T4 chain: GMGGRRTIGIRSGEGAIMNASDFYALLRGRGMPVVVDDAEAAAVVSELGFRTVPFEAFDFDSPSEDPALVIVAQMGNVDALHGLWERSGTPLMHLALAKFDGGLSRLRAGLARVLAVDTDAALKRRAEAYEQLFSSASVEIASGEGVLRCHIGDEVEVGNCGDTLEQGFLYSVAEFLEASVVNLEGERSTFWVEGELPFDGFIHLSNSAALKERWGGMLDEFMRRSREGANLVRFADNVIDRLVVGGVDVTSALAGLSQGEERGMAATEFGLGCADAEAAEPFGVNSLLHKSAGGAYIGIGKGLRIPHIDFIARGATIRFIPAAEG
As to the kind of experiment: CgnA present with CgnC, CgnE titrated.

A further assay concerns the target T5, CgnC (Chondromyces crocatus CM c5).
T5 chain: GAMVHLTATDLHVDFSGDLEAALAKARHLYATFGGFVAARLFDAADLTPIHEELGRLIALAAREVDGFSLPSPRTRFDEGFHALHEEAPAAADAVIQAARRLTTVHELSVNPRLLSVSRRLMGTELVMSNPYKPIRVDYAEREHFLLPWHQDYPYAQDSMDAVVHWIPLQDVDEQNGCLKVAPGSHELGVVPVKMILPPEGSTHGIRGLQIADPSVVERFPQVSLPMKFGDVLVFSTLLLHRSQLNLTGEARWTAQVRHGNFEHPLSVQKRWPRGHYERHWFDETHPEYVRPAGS
As to the kind of experiment: MST; CgnA at constant high concentration.

B1: CgnA leader peptide (CgnA^LP) (peptide)
chain: MKKTIKQISAGDRSKKGN
Usually Kd stands for the equilibrium constant for the complex coming apart. B1 showed a dissociation constant Kd in the assay with CgnB of 78200 nM.

B2: CgnC (enzyme)
chain: T5 chain
modifications: sequence from Supplementary Table 8 (the excerpt mark inside it is read as contiguous); N-terminal GA is a cloning remnant; dimer by size-exclusion chromatography
On to B2, for which the dissociation constant Kd amounted to 1100 nM with CgnE [1]; 1100 nM with CgnE [2]; 900 nM with CgnE [3]; 110 nM in assay [4]; 900 nM in assay [5].

B3: CgnB in the presence of CgnA (400 µM) (complex)
chain: T1 chain
modifications: sequence from Supplementary Table 8 (the excerpt mark inside it is read as contiguous); N-terminal GA is a cloning remnant; dimer by size-exclusion chromatography
Consider B3, for which, in the assay with CgnC, the Kd stood at 110 nM.
